Measurements from the supplement of paper PMC9428881.
± gives the standard error.

Assay: background-corrected fluorescence of 3'-dye-labeled ssDNA relative to brightest sequence (3'-GCGCG) (fraction); higher = brighter dye fluorescence (less quenching)
Method in brief: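 Arrays of single-stranded DNA, with a 3' Cy3 or Cy5 dye beside each of 1024 permuted pentamers, were built on glass slides through light-directed phosphoramidite synthesis. They were washed for 2 h at r.t. in acetonitrile and scanned at 532 or 635 nm, once before and once after overnight ethylenediamine/ethanol deprotection. Fluorescence is reported after subtracting unlabeled-oligo background and normalizing to the brightest sequence. Averages cover 10 features per array and at least 3 syntheses.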

Sequence	background-corrected fluorescence (dye: Cy3 (3' terminal))	background-corrected fluorescence (dye: Cy5 (3' terminal))
TTTTTTGATGATCATGAGCATTTTTTTTTTTTTTTCCGCT [TCGCC]	0.579 ± 0.035	0.428 ± 0.034
TTTTTTCATCATGAGCAGCATTTTTTTTTTTTTTTGGCTT [TTCGG]	0.558 ± 0.029	0.405 ± 0.023
TTTTTTCATGAGCATGATCATTTTTTTTTTTTTTTGCTCG	0.517 ± 0.015	0.375 ± 0.033
TTTTTTCAGCAGCATCAGCATTTTTTTTTTTTTTTGTTGT	0.679 ± 0.031	0.494 ± 0.027
TTTTTTCATGATGATCATGCTTTTTTTTTTTTTTTGCCGA [AGCCG]	0.621 ± 0.024	0.547 ± 0.034
TTTTTTGCGCATGATGCTCATTTTTTTTTTTTTTTATCAG [GACTA]	0.56 ± 0.045	0.411 ± 0.03
TTTTTTGCTCAGCATCAGCATTTTTTTTTTTTTTTAGTGT [TGTGA]	0.572 ± 0.021	0.474 ± 0.033
TTTTTTGAGCAGCATGATGCTTTTTTTTTTTTTTTCTTCA [ACTTC]	0.455 ± 0.027	0.382 ± 0.041
TTTTTTGCTCATGCTGCTCATTTTTTTTTTTTTTTAGAAG [GAAGA]	0.5917 ± 0.0049	0.456 ± 0.025
TTTTTTCATGAGCATCATCATTTTTTTTTTTTTTTGCTGG [GGTCG]	0.557 ± 0.039	0.47 ± 0.032
TTTTTTCATGAGCATGATGATTTTTTTTTTTTTTTGCTCC [CCTCG]	0.396 ± 0.022	0.286 ± 0.021
TTTTTTCAGCATGCTGATCATTTTTTTTTTTTTTTGTACG	0.561 ± 0.02	0.475 ± 0.031
TTTTTTCATGATCATGATGCTTTTTTTTTTTTTTTGCGCA [ACGCG]	0.714 ± 0.027	0.657 ± 0.043
TTTTTGCAGCATGCTGATCATTTTTTTTTTTTTTTTTACG [GCATT]	0.5 ± 0.023	0.398 ± 0.08
TTTTTTCATGCTCATCATCATTTTTTTTTTTTTTTGAGGG [GGGAG]	0.759 ± 0.02	0.553 ± 0.041
TTTTTTCATGATGAGCATCATTTTTTTTTTTTTTTGCCTG [GTCCG]	0.481 ± 0.028	0.35 ± 0.021
TTTTTGCATCATGATGCTGATTTTTTTTTTTTTTTTGCAC [CACGT]	0.415 ± 0.035	0.321 ± 0.028
TTTTTTGATGCTGCGCATCATTTTTTTTTTTTTTTCAATG [GTAAC]	0.53 ± 0.029	0.364 ± 0.026
TTTTTGCAGCATGCTGCTCATTTTTTTTTTTTTTTTTAAG [GAATT]	0.536 ± 0.025	0.411 ± 0.026
TTTTTTGATGCTGCTGCTGCTTTTTTTTTTTTTTTCAAAA [AAAAC]	0.569 ± 0.015	0.47 ± 0.03
TTTTTTCAGCAGCATGATGCTTTTTTTTTTTTTTTGTTCA [ACTTG]	0.492 ± 0.025	0.389 ± 0.044
TTTTTTCATGATGATGCTCATTTTTTTTTTTTTTTGCCAG [GACCG]	0.519 ± 0.015	0.384 ± 0.031
TTTTTTGCTGCTGATGAGCATTTTTTTTTTTTTTTAACCT [TCCAA]	0.459 ± 0.016	0.36 ± 0.039

Sequence	background-corrected fluorescence (dye: Cy3 (3' terminal))	background-corrected fluorescence (dye: Cy5 (3' terminal))
TTTTTGCATGCTCAGCAGCATTTTTTTTTTTTTTTTAGTT [TTGAT]	0.592 ± 0.023	0.411 ± 0.032
TTTTTTCATCATGCTGCTCATTTTTTTTTTTTTTTGGAAG [GAAGG]	0.593 ± 0.033	0.445 ± 0.03
TTTTTGCAGCAGCATGCTCATTTTTTTTTTTTTTTTTTAG [GATTT]	0.511 ± 0.015	0.394 ± 0.048
TTTTTGCATCATCATGATGATTTTTTTTTTTTTTTTGGCC [CCGGT]	0.46 ± 0.032	0.369 ± 0.03
TTTTTGCATGCTGCGCATGCTTTTTTTTTTTTTTTTAATA [ATAAT]	0.56 ± 0.0062	0.458 ± 0.047
TTTTTTGATCATGCTGATGATTTTTTTTTTTTTTTCGACC [CCAGC]	0.4 ± 0.016	0.324 ± 0.03
TTTTTTGCGCATGCGCAGCATTTTTTTTTTTTTTTATATT	0.543 ± 0.019	0.392 ± 0.024
TTTTTTCATGCGCATCATGCTTTTTTTTTTTTTTTGATGA [AGTAG]	0.653 ± 0.035	0.518 ± 0.062
TTTTTTGCGCATGATGCTGATTTTTTTTTTTTTTTATCAC [CACTA]	0.399 ± 0.025	0.325 ± 0.032
TTTTTTCATCAGCAGCATGATTTTTTTTTTTTTTTGGTTC [CTTGG]	0.414 ± 0.026	0.31 ± 0.025
TTTTTGCAGCAGCATGCGCATTTTTTTTTTTTTTTTTTAT [TATTT]	0.503 ± 0.033	0.364 ± 0.017
TTTTTTGATGCGCATGCTCATTTTTTTTTTTTTTTCATAG [GATAC]	0.521 ± 0.02	0.422 ± 0.027
TTTTTGCATCAGCATGCTCATTTTTTTTTTTTTTTTGTAG [GATGT]	0.535 ± 0.015	0.443 ± 0.064
TTTTTTGCTGCTCATGCTGATTTTTTTTTTTTTTTAAGAC [CAGAA]	0.485 ± 0.015	0.363 ± 0.018
TTTTTTGCTGAGCATGCTCATTTTTTTTTTTTTTTACTAG [GATCA]	0.554 ± 0.029	0.433 ± 0.025
TTTTTTCATCATGATGATCATTTTTTTTTTTTTTTGGCCG [GCCGG]	0.597 ± 0.02	0.449 ± 0.043
TTTTTTGCGCATGCTGCTCATTTTTTTTTTTTTTTATAAG [GAATA]	0.532 ± 0.019	0.429 ± 0.031
TTTTTTCATGATCAGCAGCATTTTTTTTTTTTTTTGCGTT	0.571 ± 0.032	0.422 ± 0.024
TTTTTTGATCATGCGCATCATTTTTTTTTTTTTTTCGATG [GTAGC]	0.552 ± 0.021	0.438 ± 0.024
TTTTTTGCTGATGATCATGATTTTTTTTTTTTTTTACCGC [CGCCA]	0.592 ± 0.014	0.406 ± 0.026
TTTTTTCAGCATCAGCATCATTTTTTTTTTTTTTTGTGTG	0.604 ± 0.017	0.43 ± 0.03
TTTTTTCAGCAGCATGAGCATTTTTTTTTTTTTTTGTTCT [TCTTG]	0.459 ± 0.012	0.367 ± 0.027
TTTTTTCATGATGCTGCTGCTTTTTTTTTTTTTTTGCAAA [AAACG]	0.599 ± 0.028	0.497 ± 0.03

Sequence	background-corrected fluorescence (dye: Cy3 (3' terminal))	background-corrected fluorescence (dye: Cy5 (3' terminal))
TTTTTGCATGCTGCTGATGATTTTTTTTTTTTTTTTAACC [CCAAT]	0.396 ± 0.025	0.278 ± 0.021
TTTTTTGATGCTGCTCATCATTTTTTTTTTTTTTTCAAGG [GGAAC]	0.579 ± 0.028	0.489 ± 0.029
TTTTTGCAGCATGCTGATGCTTTTTTTTTTTTTTTTTACA [ACATT]	0.502 ± 0.01	0.397 ± 0.025
TTTTTTGCTCATGATGATGATTTTTTTTTTTTTTTAGCCC [CCCGA]	0.393 ± 0.022	0.304 ± 0.018
TTTTTTCATGAGCATGCGCATTTTTTTTTTTTTTTGCTAT [TATCG]	0.52 ± 0.019	0.376 ± 0.035
TTTTTTGATGATGCTGCTGATTTTTTTTTTTTTTTCCAAC [CAACC]	0.403 ± 0.021	0.291 ± 0.02
TTTTTGCATGATGATGAGCATTTTTTTTTTTTTTTTCCCT	0.472 ± 0.027	0.317 ± 0.026
TTTTTTGCTCATGAGCAGCATTTTTTTTTTTTTTTAGCTT [TTCGA]	0.551 ± 0.021	0.419 ± 0.041
TTTTTTCATCAGCAGCAGCATTTTTTTTTTTTTTTGGTTT	0.536 ± 0.02	0.402 ± 0.045
TTTTTTGATCATGCTGATCATTTTTTTTTTTTTTTCGACG [GCAGC]	0.602 ± 0.013	0.491 ± 0.024
TTTTTGCAGCATGCGCATGCTTTTTTTTTTTTTTTTTATA [ATATT]	0.538 ± 0.038	0.4 ± 0.028
TTTTTTGCTGATCATCATGATTTTTTTTTTTTTTTACGGC [CGGCA]	0.594 ± 0.029	0.433 ± 0.049
TTTTTTCAGCATGCGCATCATTTTTTTTTTTTTTTGTATG	0.57 ± 0.011	0.419 ± 0.027
TTTTTGCATGATCATGATCATTTTTTTTTTTTTTTTCGCG [GCGCT]	0.93 ± 0.023	0.964 ± 0.064
TTTTTTGAGCATGATGCTGATTTTTTTTTTTTTTTCTCAC [CACTC]	0.391 ± 0.046	0.314 ± 0.022
TTTTTTCATGCTCATCATGATTTTTTTTTTTTTTTGAGGC [CGGAG]	0.585 ± 0.015	0.465 ± 0.033
TTTTTTGATCATCATGATCATTTTTTTTTTTTTTTCGGCG [GCGGC]	0.704 ± 0.027	0.611 ± 0.053
TTTTTTGCGCATCATGCTCATTTTTTTTTTTTTTTATGAG [GAGTA]	0.602 ± 0.036	0.466 ± 0.04
TTTTTTCATGATGCGCATGATTTTTTTTTTTTTTTGCATC [CTACG]	0.441 ± 0.025	0.288 ± 0.026
TTTTTTCAGCATGATGATGCTTTTTTTTTTTTTTTGTCCA [ACCTG]	0.484 ± 0.021	0.366 ± 0.023
TTTTTTCATGATGATCATCATTTTTTTTTTTTTTTGCCGG [GGCCG]	0.665 ± 0.025	0.564 ± 0.072
TTTTTTGATCATCATGATGCTTTTTTTTTTTTTTTCGGCA [ACGGC]	0.612 ± 0.015	0.493 ± 0.034
TTTTTGCATCATGCTGCTCATTTTTTTTTTTTTTTTGAAG [GAAGT]	0.564 ± 0.02	0.44 ± 0.024
